According to PMC2816707:

Assays:
humanized EBV321 = assay: ELISA; conditions: point at the highest antibody concentration, about 13.3 nM (read from x axis); VEGF captured on ELISA plate; parent: est. 0.66; read off a plot
Bevacizumab = assay: ELISA; conditions: point at the highest antibody concentration, about 13.3 nM (read from x axis); VEGF captured on ELISA plate; parent: est. 0.86; read off a plot
[1] = target: Recombinant human VEGF165 (human) (UniProt P15692); assay: ELISA; inhibition of VEGF/VEGFR-2 interaction
Recombinant human VEGF165 (human), sequence (P15692 other isoform, or with tags, fused parts or gaps): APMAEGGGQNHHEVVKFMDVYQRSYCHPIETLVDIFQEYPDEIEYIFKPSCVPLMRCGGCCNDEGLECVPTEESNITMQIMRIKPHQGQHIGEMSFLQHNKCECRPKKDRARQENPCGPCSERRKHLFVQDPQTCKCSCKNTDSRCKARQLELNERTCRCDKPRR

rabbit IgG Fc-hVEGF (human VEGF165) fusion protein, wild type (from UniProt P15692-4) G88A; Q89A, sequence (P15692 whole entry, looked up, stated change not applied, the tested form may be a part): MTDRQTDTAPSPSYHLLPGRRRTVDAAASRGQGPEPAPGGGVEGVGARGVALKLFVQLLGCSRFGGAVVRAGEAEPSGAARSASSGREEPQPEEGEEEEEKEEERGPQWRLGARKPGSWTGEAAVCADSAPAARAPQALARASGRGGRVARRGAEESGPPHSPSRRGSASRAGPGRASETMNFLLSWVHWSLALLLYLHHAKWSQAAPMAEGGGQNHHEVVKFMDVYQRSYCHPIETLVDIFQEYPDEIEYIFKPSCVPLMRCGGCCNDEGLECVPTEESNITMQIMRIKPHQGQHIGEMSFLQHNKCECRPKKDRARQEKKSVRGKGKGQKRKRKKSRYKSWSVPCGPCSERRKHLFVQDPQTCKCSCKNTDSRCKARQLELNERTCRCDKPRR
rabbit IgG Fc-hVEGF (human VEGF165) fusion protein, wild type (from UniProt P15692-4) I46A, sequence (P15692 whole entry, looked up, stated change not applied, the tested form may be a part): as above
rabbit IgG Fc-hVEGF (human VEGF165) fusion protein, wild type (from UniProt P15692-4) G88A, sequence (P15692 whole entry, looked up, stated change not applied, the tested form may be a part): as above

response (humanized EBV321)	response (Bevacizumab)	IC50 [1]	Substance
0.76 OD (405nm)	0.13 OD (405nm)		rabbit IgG Fc-hVEGF (human VEGF165) fusion protein, wild type (from UniProt P15692-4) G88A; Q89A
	0.88 OD (405nm)		rabbit IgG Fc-hVEGF (human VEGF165) fusion protein, wild type (from UniProt P15692-4) I46A
	0.57 OD (405nm)		rabbit IgG Fc-hVEGF (human VEGF165) fusion protein, wild type (from UniProt P15692-4) G88A
		0.893 nM	Bevacizumab
